Target: Soluble human cMet extracellular domain (ECD) protein (human) (UniProt P08581)
Experiment: SPR, captured via anti-human kappa, soluble ECD injected

Sequence of Soluble human cMet extracellular domain (ECD) protein (human) (P08581 25-932): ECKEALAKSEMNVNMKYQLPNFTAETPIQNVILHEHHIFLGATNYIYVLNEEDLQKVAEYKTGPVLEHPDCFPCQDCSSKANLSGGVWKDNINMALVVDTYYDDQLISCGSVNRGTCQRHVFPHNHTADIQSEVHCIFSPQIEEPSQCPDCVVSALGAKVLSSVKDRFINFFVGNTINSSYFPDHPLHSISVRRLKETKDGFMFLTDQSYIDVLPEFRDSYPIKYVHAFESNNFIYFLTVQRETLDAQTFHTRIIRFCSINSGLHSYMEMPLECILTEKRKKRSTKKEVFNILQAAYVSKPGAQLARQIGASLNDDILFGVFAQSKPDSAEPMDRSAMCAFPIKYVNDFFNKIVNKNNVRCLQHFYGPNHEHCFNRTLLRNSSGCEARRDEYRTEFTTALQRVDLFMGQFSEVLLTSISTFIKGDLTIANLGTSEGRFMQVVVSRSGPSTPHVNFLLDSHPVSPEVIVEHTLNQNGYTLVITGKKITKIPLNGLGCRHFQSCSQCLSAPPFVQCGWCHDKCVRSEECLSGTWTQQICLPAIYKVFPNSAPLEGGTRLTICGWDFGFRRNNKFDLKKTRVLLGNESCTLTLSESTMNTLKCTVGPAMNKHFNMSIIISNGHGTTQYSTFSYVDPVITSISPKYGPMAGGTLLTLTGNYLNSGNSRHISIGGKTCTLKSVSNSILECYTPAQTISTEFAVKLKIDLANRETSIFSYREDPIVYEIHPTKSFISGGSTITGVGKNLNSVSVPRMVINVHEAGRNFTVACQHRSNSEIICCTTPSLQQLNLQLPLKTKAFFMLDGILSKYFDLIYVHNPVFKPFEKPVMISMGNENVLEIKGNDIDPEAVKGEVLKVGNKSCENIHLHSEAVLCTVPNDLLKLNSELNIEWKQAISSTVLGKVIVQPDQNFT

- Kd: 1.3 nM
- koff: 0.0001 s⁻¹
- kon: 75000 M⁻¹ s⁻¹
B1: MetMAb (antibody, INN chains, looked up, V domains shown)
VH: EVQLVESGGGLVQPGGSLRLSCAASGYTFTSYWLHWVRQAPGKGLEWVGMIDPSNSDTRFNPNFKDRFTISADTSKNTAYLQMNSLRAEDTAVYYCATYRSYVTPLDYWGQGTLVTVSS
VL: DIQMTQSPSSLSASVGDRVTITCKSSQSLLYTSSQKNYLAWYQQKPGKAPKLLIYWASTRESGVPSRFSGSGSGTDFTLTISSLQPEDFATYYCQQYYAYPWTFGQGTKVEIKR

From patent publication US20240132626A1
